Numbering of substitutions follows the chain as printed.
T1: endogenous human iRhom2 (human, UniProt Q6PJF5 1-856)
T1 sequence: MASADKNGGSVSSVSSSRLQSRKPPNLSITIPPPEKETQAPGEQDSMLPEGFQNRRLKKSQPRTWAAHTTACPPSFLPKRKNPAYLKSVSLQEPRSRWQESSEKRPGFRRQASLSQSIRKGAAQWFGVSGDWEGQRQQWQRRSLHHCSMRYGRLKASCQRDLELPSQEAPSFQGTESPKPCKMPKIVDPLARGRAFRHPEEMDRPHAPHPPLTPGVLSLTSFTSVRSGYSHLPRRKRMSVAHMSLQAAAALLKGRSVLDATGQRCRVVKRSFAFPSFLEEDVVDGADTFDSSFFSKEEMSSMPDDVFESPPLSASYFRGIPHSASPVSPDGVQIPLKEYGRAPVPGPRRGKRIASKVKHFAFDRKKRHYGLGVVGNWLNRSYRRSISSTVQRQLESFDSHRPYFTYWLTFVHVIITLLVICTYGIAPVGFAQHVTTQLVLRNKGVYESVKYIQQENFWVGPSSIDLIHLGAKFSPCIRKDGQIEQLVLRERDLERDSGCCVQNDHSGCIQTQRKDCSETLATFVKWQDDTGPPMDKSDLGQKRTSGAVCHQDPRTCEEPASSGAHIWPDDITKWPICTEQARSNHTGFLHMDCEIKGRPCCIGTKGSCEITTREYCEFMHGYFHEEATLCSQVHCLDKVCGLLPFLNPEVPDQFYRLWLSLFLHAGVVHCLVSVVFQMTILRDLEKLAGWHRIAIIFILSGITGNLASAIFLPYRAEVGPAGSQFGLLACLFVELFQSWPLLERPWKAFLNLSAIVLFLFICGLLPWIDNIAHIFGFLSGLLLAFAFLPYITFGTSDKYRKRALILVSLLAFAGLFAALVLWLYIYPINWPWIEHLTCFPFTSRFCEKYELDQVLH

T2: mouse iRhom2 full length wild type C-terminally tagged with 3 consecutive copies of the T7 epitope (mouse, UniProt Q80WQ6 1-827)
T2 construct: also called miR2-FL-WT-T7; mouse iRhom2 variant
T2 sequence: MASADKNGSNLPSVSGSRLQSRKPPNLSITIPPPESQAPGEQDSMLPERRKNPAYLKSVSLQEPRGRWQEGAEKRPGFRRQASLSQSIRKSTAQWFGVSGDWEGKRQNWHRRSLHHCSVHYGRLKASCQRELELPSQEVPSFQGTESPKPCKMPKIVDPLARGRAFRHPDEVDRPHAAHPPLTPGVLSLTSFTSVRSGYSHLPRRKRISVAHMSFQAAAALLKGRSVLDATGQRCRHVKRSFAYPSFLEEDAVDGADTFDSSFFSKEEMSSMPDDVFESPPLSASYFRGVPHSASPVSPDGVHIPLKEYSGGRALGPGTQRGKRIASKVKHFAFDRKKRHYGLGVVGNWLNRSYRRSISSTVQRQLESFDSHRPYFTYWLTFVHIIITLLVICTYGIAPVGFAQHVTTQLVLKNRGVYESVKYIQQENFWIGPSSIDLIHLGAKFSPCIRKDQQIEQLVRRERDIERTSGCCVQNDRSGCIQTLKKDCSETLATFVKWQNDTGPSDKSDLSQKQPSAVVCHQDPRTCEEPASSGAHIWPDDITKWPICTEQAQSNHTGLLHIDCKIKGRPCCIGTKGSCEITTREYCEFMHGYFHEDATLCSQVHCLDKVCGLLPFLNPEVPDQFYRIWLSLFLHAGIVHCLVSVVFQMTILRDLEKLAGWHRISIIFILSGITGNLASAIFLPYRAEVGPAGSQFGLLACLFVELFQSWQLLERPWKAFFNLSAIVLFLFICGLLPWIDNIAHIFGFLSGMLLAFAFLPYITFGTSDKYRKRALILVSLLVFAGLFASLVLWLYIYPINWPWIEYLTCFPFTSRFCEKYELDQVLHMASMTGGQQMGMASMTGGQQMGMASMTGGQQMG

B1: humanized antibody 42-B-04 (antibody, V domains shown)
VH: QVTLRESGPALVKPTQTLTLTCTFSGFSLSTFGRGVGWIRQPPGKALEWLAHIWWDDEKYYNSALKSRLTISKDTSKNQVVLTITNMDPVDTATYYCARIQNYGSNYWYFDVWGQGTLVTVSS
VL: AIQLTQSPSSLSASVGDRVTITCRASSRISYMFWYQQKPGKAPKVLIYDTSNLASGVPSRFSGSGSGTDYTLTISSLQPEDFATYYCQQWNAYPLTFGQGTKLEIK
notes: Tested as whole humanized antibody produced in CHO cells and detected with anti-human IgG; the general methods speak of human IgG1/Kappa; also called clone 42-B-04
B2: humanized antibody 42-B-02 (antibody, V domains shown)
VH: B1 VH
VL: B1 VL with A92S
notes: Tested as whole humanized antibody from transient expression of heavy chain/kappa light chain pairs in CHO cells, detected with anti-human IgG; the general methods speak of human IgG1/Kappa; also called clone 42-B-02
B3: humanized antibody 23-B-04 (antibody, V domains shown)
VH: B1 VH with R34M, Q101S, D111N
VL: B1 VL with R28S, I29V, F33Y
notes: Tested as whole humanized antibody produced in CHO cells and detected with anti-human IgG; the general methods speak of human IgG1/Kappa; also called clone 23-B-04
B4: humanized antibody 16-B-07 (antibody, V domains shown)
VH: QVTLRESGPALVKPTQTLTLTCTFSGFSLSTFALGVGWIRQPPGKALEWLAHIWWDEDKYYNPALKSRLTISKDTSKNQVVLTITNMDPVDTATYYCARITTYYYGMDYWGQGTLVTVSS
VL: EIVMTQSPDFQSVTPKEKVTITCRASQSIGNHLHWYQQKPDASPKLLIKYASQSISGVPSRFSGSGSGTDFTLTINSLEAEDAATYFCQQSYQWPLTFGQGTKLEIK
notes: Tested as whole humanized antibody produced in CHO cells and detected with anti-human IgG; the general methods speak of human IgG1/Kappa; also called clone 16-B-07
B5: humanized antibody 16-B-05 (antibody, V domains shown)
VH: B4 VH
VL: B4 VL with Q93N
notes: Tested as whole humanized antibody produced in CHO cells and detected with anti-human IgG; the general methods speak of human IgG1/Kappa; The printed LCVD reads SRESGSG where the printed cDNA encodes SRFSGSG; also called clone 16-B-05
B6: humanized antibody 16-B-03 (antibody, V domains shown)
VH: B4 VH with E57D
VL: B4 VL
notes: Tested as whole humanized antibody produced in CHO cells and detected with anti-human IgG; the general methods speak of human IgG1/Kappa; also called clone 16-B-03

Assays:
endogenous human iRhom2 = target: T1, endogenous human iRhom2; assay: cell-based or functional assay
[1] = target: T2, mouse iRhom2 full length wild type …; assay: FACS on MEF-DKO-miR2-FL-WT-T7 cells
Procedure: In brief, immortalized MEF-DKO-EV control cells, MEF-DKO-hiR2-FL-WT-T7 cells and MEF-DKO-miR2-FL-WT-T7 cells were harvested with 10 mM EDTA in PBS, washed and resuspended in FACS buffer (PBS, 3% FBS, 0.05% sodium azide), and seeded in Nunc U-bottom 96-well plates (Thermo Fisher Scientific, USA) at approximately 3×10⁵ cells per well. To pellet cells and remove supernatants, the plates were centrifuged at 1,500 rpm and 4° C. for 3 minutes. For primary staining, cells were resuspended in 100 μl per well of either FACS buffer alone (controls), mouse monoclonal anti-T7 IgG (Merck Millipore, USA) at 3 μg/ml FACS buffer or the humanized antibodies 16-B-03, 16-B-05, 16-B-07, 23-B-04, 42-B-02 and 42-B-04 of the invention also at 3 μg/ml FACS buffer and incubated on ice for 1 hour. Afterwards, plates were centrifuged at 1,500 rpm and 4° C. for 3 minutes and washed twice with 200 μl per well of FACS buffer. For secondary staining of previous anti T7 staining, cells were spun down and resuspended in 100 μl per well of PE-conjugated goat anti-mouse IgG F(ab′)2 detection fragment (Dianova, Germany) diluted 1:100 in FACS buffer. For secondary staining of previous staining with humanized antibodies of invention, cells were spun down and resuspended in 100 μl per well of PE-conjugated goat anti-human IgG F(ab′)2 detection fragment (Dianova, Germany) diluted 1:100 in FACS buffer. Protected from light, the cell suspensions were incubated on ice for 1 hour. Plates were then centrifuged at 1,500 rpm and 4° C. for 3 minutes and washed three times with 200 μl per well of FACS buffer. Finally, cells were resuspended in 150 μl per well of FACS buffer and analyzed using a BD Accuri™ C6 Plus flow cytometer (Becton Dickinson, Germany).

Binder	percent inhibition of LPS-induced release of TNFα from PBMCs from healthy donors (ELISA, antibody 3 µg/ml) (endogenous human iRhom2) [%]	percent inhibition of LPS-induced release of TNFα from THP-1 cells (ELISA, antibody 3 µg/ml) (endogenous human iRhom2) [%]	percent inhibition of PMA-induced release of HB-EGF from PBMCs from healthy donors (ELISA, antibody 3 µg/ml) (endogenous human iRhom2) [%]	percent inhibition of PMA-induced release of HB-EGF from THP-1 cells (ELISA, antibody 3 µg/ml) (endogenous human iRhom2) [%]	percent inhibition of PMA-induced release of HB-EGF from U-937 cells (ELISA, antibody 3 µg/ml) (endogenous human iRhom2) [%]	percent inhibition of PMA-induced release of IL-6R from PBMCs from healthy donors (ELISA, antibody 3 µg/ml) (endogenous human iRhom2) [%]	percent inhibition of PMA-induced release of IL-6R from THP-1 cells (ELISA, antibody 3 µg/ml) (endogenous human iRhom2) [%]	percent inhibition of PMA-induced release of IL-6R from U-937 cells (ELISA, antibody 3.33 µg/ml) (endogenous human iRhom2) [%]	percent inhibition of PMA-induced release of TGFα from PC3 cells (ELISA, antibody 10 µg/ml) (endogenous human iRhom2) [%]	percent inhibition of PMA-induced release of TNFα from U-937 cells (ELISA, antibody 3.33 µg/ml) (endogenous human iRhom2) [%]	binding result [1]
B1	68.5	76.1	66.7	86.2	99.4	78.4	71.6	82.4	19.5	87.9	no binding (tested: 3 µg/ml)
B2	64.3	75.2	59.2	81.2	98.8	73.4	68.5	78.3	6.4	85	no binding (tested: 3 µg/ml)
B3	59.4	77.6	49.6	84.4	99.5	64.6	70.1	77.8	21.3	77.2	no binding (tested: 3 µg/ml)
B4	72.8	77.2	66.5	80.5	99.2	75.4	75.6	77.5	3.3	90.3	no binding (tested: 3 µg/ml)
B5	73.5	78.7	74.8	83	99.7	79	74	81.7	23.8	89	no binding (tested: 3 µg/ml)
B6	74.2	75.1	69.7	80.2	99.2	75	75.6	79.6	15.9	89.8	no binding (tested: 3 µg/ml)
